According to FireProtDB (doi:10.1021/bi00444a012):

Settings: Bacillus amyloliquefaciens; pH 8; Thermal; DSC; Tris-HCl 5.0 mM; KCl 50 mM; reversible: yes; whole UniProt chain shown

B1: Subtilisin BPN' wild type, P00782 (protein)
chain: MRGKKVWISLLFALALIFTMAFGSTSSAQAAGKSNGEKKYIVGFKQTMSTMSAAKKKDVISEKGGKVQKQFKYVDAASATLNEKAVKELKKDPSVAYVEEDHVAHAYAQSVPYGVSQIKAPALHSQGYTGSNVKVAVIDSGIDSSHPDLKVAGGASMVPSETNPFQDNNSHGTHVAGTVAALNNSIGVLGVAPSASLYAVKVLGADGSGQYSWIINGIEWAIANNMDVINMSLGGPSGSAALKAAVDKAVASGVVVVAAAGNEGTSGSSSTVGYPGKYPSVIAVGAVDSSNQRASFSSVGPELDVMAPGVSIQSTLPGNKYGAYNGTSMASPHVAGAAALILSKHPNWTNTQVRSSLENTTTKLGDSFYYGKGLINVQAAAQ
Tm: 58.5 °C | heat capacity change of unfolding: 4.8 kcal/mol/K | unfolding enthalpy (calorimetric): 88.3 kcal/mol | unfolding enthalpy (van 't Hoff): 97 kcal/mol
